These results are taken from patent US20230028090, “Method Of Using Aptamer For Detecting Glycated Hemoglobin In Whole Blood And Nanoelectronic Aptasensor” (National Taiwan University, published 2023).

This data set concerns the target Glycated hemoglobin HbA1c (Homo sapiens, UniProt P69905;P68871 P69905:2-142,P68871:2-147). As to the kind of experiment: detection range by PEG:AptGP silicon nanowire FET in 1x PBS; hemolytic blood also detected, serum control response <10%. Particulars: also hemolytic whole blood samples; chain copies: 2. As for the experimental part: Prior to the surface modification, an SiNW-FET was washed with ethanol and cleaned with oxygen plasma (25 W, 50 sccm, 60 s). The SiNW-FET device was then incubated for 15 min in an ethanol solution (1% v/v) containing an optimal ratio of MPTMS, PTMS, and PEG-silane, of which the ethanol solution was also mixed with 16.7 mM DTT to reduce the possible disulfide linkages among the thiol groups of MPTMS. Next, this silane-based SAM-modified device was rinsed with ethanol, dried under N₂, and heated at 100° C. for 15 min. Finally, the silane-based SAM-modified device was incubated in 1×PBS containing 1 μM AptGP and 16.7 mM DTT for 1 hr, where AptGP (with the 5′-SH) was immobilized to MPTMS via a disulfide bond to form a PEG:AptGP/SiNW-FET aptasensor.
We show a representative example of measuring HbA1c in the blood sample of Subject 1 by PEG:AptGP/SiNW-FET. Before detecting HbA1c in a lysed-blood sample, a PEG:AptGP/SiNW-FET aptasensor was calibrated by recording the transfer curves corresponding to various concentrations of HbA1c (CHbA1c=0-1.2 μM in 1×PBS), as shown in FIG. 14. […] By comparison, we also detected HbA1c in serum as a control test (with the transfer curves measured in the lower panel of FIG. 16 and the corresponding electrical responses presented in FIG. 17), where the serum was isolated from the tested blood sample by centrifugation.

Glycated hemoglobin HbA1c, sequence (P69905 2-142, chain 1 of 2): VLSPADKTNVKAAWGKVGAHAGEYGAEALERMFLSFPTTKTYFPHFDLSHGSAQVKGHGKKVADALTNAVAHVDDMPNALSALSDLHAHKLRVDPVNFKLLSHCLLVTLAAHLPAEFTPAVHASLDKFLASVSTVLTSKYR
Glycated hemoglobin HbA1c, sequence (P68871 2-147, chain 2 of 2): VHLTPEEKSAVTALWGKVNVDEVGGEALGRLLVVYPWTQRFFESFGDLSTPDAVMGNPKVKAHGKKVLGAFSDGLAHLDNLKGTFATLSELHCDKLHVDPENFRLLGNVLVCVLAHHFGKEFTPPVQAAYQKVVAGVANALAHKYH

B1: AptGP (Aptamer A) (ssDNA)
DNA: GGTGAGTTAAGGAATCAGCGGCTCAGACGACCCGACGCAC
modifications: end-modified for disulfide conjugation to MPTMS on silicon nanowire
As to B1, the binding result is given as “binds”.
